We go through 3 molecules from patent US20250282892A1 (published 2025).

One assay deals with EGFR His tag (UniProt P00533 25-645). Kind of assay: ELISA. Background: ELISA stands for enzyme-linked immunosorbent assay.
The next assay concerns the target HER3 His tag (UniProt P21860 20-643). The assay is described as follows: ELISA.
Assay [1] concerns the target HER3 tag free antigen (immobilized) (UniProt P21860 20-643). The assay is described as follows: ELISA; dual-binding sandwich: immobilized HER3-Fc + EGFR-His.
Assay [2] addresses EGFR tag free antigen (immobilized) (UniProt P00533 25-645). Kind of assay: ELISA; dual-binding sandwich: immobilized EGFR-Fc + HER3-His.

B1: BMX003-011 (humanized Patri-Cetu-Fc modified) (bispecific antibody)
heavy: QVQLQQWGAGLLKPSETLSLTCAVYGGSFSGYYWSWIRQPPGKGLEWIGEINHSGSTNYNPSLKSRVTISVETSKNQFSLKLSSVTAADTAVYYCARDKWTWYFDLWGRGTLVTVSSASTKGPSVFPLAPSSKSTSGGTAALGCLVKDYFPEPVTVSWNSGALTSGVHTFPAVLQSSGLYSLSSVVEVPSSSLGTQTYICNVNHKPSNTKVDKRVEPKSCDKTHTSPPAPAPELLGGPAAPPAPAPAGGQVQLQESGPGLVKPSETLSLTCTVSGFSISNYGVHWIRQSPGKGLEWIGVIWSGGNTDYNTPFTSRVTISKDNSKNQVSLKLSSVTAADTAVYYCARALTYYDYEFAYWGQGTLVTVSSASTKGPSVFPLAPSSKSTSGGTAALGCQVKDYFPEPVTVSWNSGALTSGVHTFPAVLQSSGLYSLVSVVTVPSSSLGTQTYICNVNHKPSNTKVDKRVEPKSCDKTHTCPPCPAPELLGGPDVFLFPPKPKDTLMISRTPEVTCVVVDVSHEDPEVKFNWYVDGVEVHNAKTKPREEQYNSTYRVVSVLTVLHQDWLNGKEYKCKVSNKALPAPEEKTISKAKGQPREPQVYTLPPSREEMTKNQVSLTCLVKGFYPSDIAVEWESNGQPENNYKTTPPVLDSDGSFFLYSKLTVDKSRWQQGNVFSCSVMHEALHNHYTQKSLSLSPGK
light 1: not shown
light 2: EIVLTQSPDFQSVTPKEKVTITCRASQSIGTNIHWYQQKPDQSPKLLIKYASESISGVPSRFSGSGSGTDFTLTINSLEAEDAATYYCQQNNNWPTTFGAGTKLEIKRTVAAPSVFIFPPSDEQLKSGTASVTCLLNNFYPREAKVQWKVDNALQSGNSQESVTEQDSKDSTYSLVSTLTLSKADYEKHKVYACEVTHQGLSSPVTKSFNRGEC
For the molecule B1, the EC50 – broadly, the concentration that produces a half-maximal response – with EGFR His tag worked out at 0.013 nM; in the assay with HER3 His tag, 0.0259 nM.

B2: BMX003-010 (humanized Patri-Cetu-Fc) (bispecific antibody)
heavy: not shown
light 1: not shown
light 2: EIVLTQSPDFQSVTPKEKVTITCRASQSIGTNIHWYQQKPDQSPKLLIKYASESISGVPSRFSGSGSGTDFTLTINSLEAEDAATYYCQQNNNWPTTFGAGTKLEIKRTVAAPSVFIFPPSDEQLKSGTASVTCLLNNFYPREAKVQWKVDNALQSGNSQESVTEQDSKDSTYSLVSTLTLSKADYEKHKVYACEVTHQGLSSPVTKSFNRGEC
As to B2, the EC50 with EGFR His tag was determined as 0.0155 nM; in the assay with HER3 His tag it was 0.0223 nM.

B3: Patri-Matu-Fc (bispecific antibody)
heavy: not shown
light 1: not shown
light 2: DIQMTQSPSSLSASVGDRVTITCSASSSVTYMYWYQQKPGKAPKLLIYDTSNLASGVPSRFSGSGSGTDYTFTISSLQPEDIATYYCQQWSSHIFTFGQGTKVEIKRTVAAPSVFIFPPSDEQLKSGTASVTCLLNNFYPREAKVQWKVDNALQSGNSQESVTEQDSKDSTYSLVSTLTLSKADYEKHKVYACEVTHQGLSSPVTKSFNRGEC
B3: the EC50 in assay [1] is 0.55 nM; in assay [2] it was 170 nM.
